The text below walks through data of the DeepSol protein solubility set.

This data set in a line: soluble on expression in E. coli; label from the status in PepcDB or PDB records.
For “MGSDKIHHHHHHMAMVVLGAGGGLGRAITLELSKQYPDERIFALSRQPEVPETDSSDVTYCRIEDYDEKALGAWVSEFKNNGEQLSGVVSTIGMLHDEETFPEKKLTDITADNLNKLFSVNAVKPMLALKAFLPILDRKKTRFWVQLSAKVGSIEDNYLGGWYAYRSSKAGLNMLLKTASIELKRTHKNLIVAAIHPGTTDTRLSEPFQERISTDKLYSPELSAERIVAVVKNLKPENTGALWHWDGSRLPY”, the “soluble on expression in E. coli” value is “not soluble”. For “MIDLSKTVFYTSIDIGSRYIKGLVLGKRDQEWEALAFSSVKSRGLDEGEIKDAIAFKESVNTLLKELEEQLQKSLRSDFVISFSSVSFEREDTVIERDFGEEKRSITLDILSEMQSEALEKLKENGKTPLHIFSKRYLLDDERIVFNPLDMKASKIAIEYTSIVVPLKVYEMFYNFLQDTVKSPFQLKSSLVSTAEGVLTTPEKDRGVVVVNLGYNFTGLIAYKNGVPIKISYVPVGMKHVIKDVSAVLDTSFEESERLIITHGNAVYNDLKEEEIQYRGLDGNTIKTTTAKKLSVIIHARLREIMSKSKKFFREVEAKIVEEGEIGIPGGVVLTGGGAKIPRINELATEVFKSPVRTGCYANSDRPSIINADEVANDPSFAAAFGNVFAVSENPYEETPVKSENPLKKIFRLFKELME” the value was “soluble”; for “MGSDKIHHHHHHMERMALHFEILENGKVKCLLCPHECVLDNGQIGLCGVRKNKNGSLVSLNYGEVTAIAMDPIEKKPLFHFNPGEQIFSVGTFGCNFKCGFCQNWEISQAKPETKRVTPEQLVKIAQMNRNSKGIAFTYNEPLVWYEFVLDTSRVAVREGMYCVLVTNGFINEEPLELLFQSVHAMNIDLKGFNRDFYREIGGDLDVVLRNIEKVYNAGIHVELTTLIIPGKNDDKEDLRREFEWIADLDKDIPLHISRYFPNYKYTIPPTPIEELIEIYEMAREYLNFVYLGNVWDERYESTFCPDCGNLVIRRQGYEVEKVGLDEEGKCTKCGRQIATIIG”, “not soluble”. The result for “MKYIVNKSHNPAFNIALEAYAFRELVEEDELFILWINEPAIIIGKHQNTIQEINKEYIDEHGIHVVRRLSGGGAVYHDLNNLNYTIISNKTAEGAFDFKTFSQPVIATLADLGVTANFTGRNDIEIDGKKICGNAQAYYKGRMMHHGCLLFDVDMTVLGDALKVSKDKIESKGVKSVRARVTNILNELPEKITVEEFSDKILAKMKETYPDMTEYVLSEDELAKIEQSAKEQFGSWDWTYGKAPEYTIERNVRYPAGKISTFANVENSIIKNLKIYGDFFGIKDVQDIENLLIGCKYEYRDVFERLKTIDTTQYFSRMTVEEVAKAIVS” reads “not soluble”. Regarding “SVDMQSLDEEDFSVSKSSDADAEFDIVIGNIEDIIMEDEFQHLQQSFMEKYYLEFDDSEENKLSYTPIFNEYIEILEKHLEQQLVERIPGFNMDAFTHSLKQHKDEVSGDILDMLLTFTDFMAFKEMFTDYRAEKEGRGLDLSTGLVVKSLNSSSASPLTPSMASQSI”, the “soluble on expression in E. coli” value is “not soluble”. The result for “MGSDKIHHHHHHMRHTILFIIDGLPGGGAERVVITLAGEMAARGHQVTIASLQASLDYAIPAGVDYLLVEDRYRGPLRRQTEIRRRARQLDGALRRHFAGRRIDLAVSNLPKTDRIVAACPYLEQAWLCLHCAIQAGQLAERSGIRRWLKKRQLVRTYSGRKLITVCQALQRDVLDCGIRPARMEAIYNPFDLDWIRRRAAQPCPMDGEDFILHVGRFNHQKRHDRLLEAFKLSGYPGKLALLGQGGQAELSAIQVQAERLGVADRLVVAGFTDNPYAYMRAARALVLSSDYEGFGNVLVEALACGTPVASTNCPEGPAEILTGPLSIGLSELNGQALADAIKRVLASRPLAGPEQLAAFAQDAVVERYLALVNQ” reads “not soluble”; that for “MTPMKTYDLIVIGTGPGGYHAAIRAAQLGLKVLAVEAGEVGGVCLNVGCIPTKALLHAAETLHHLKVAEGFGLKAKPELDLKKLGGWRDQVVKKLTGGVGTLLKGNGVELLRGFARLVGPKEVEVGGERYGAKSLILATGSEPLELKGFPFGEDVWDSTRALKVEEGLPKRLLVIGGGAVGLELGQVYRRLGAEVTLIEYMPEILPQGDPETAALLRRALEKEGIRVRTKTKAVGYEKKKDGLHVRLEPAEGGEGEEVVVDKVLVAVGRKPRTEGLGLEKAGVKVDERGFIRVNARMETSVPGVYAIGDAARPPLLAHKAMREGLIAAENAAGKDSAFDYQVPSVVYTSPEWAGVGLTEEEAKRAGYKVKVGKFPLAASGRALTLGGAEGMVKVVGDEETDLLLGVFIVGPQAGELIAEAALALEMGATLTDLALTVHPHPTLSESLMEAAEAFHKQAIHILNR”, “soluble”. Regarding “MRNLAIVDLGSNSARMAVSRLHANGTAQEIKRVKEDTRLSEGMGTAHVLQPAAIERTIKALLNFRRLYEKMPNTDVIGITTAAVRMAQNQTEFLNQVKQEVGLDLRVLSGDDEAYYDYLGVANSLVIHDCLILDTGGASCELILVKNGRKQQLISIPFGAVTLSEQFGLDDLVPSASLFRAQMFLRNRLADIWWLSEAVHFPIILLGGANRTLARINRRRQQKLKVEDIHGYRLKTETVFHTFLDLLSRSKKGRQEISGMEYDRADIIVGGMLPLVTLLQMLDSDRVIFSESGVREGIISEHLNQLEHHHHHH”, the “soluble on expression in E. coli” value is reported as “not soluble”. The result for “MAHHHHHHMPAAVTVHPLVLLSIVDHVTRVGLQTQQQRSPQKQGSAPDAAAASLPAPVFLSTAGLLMGTTRASGPVVTSTCSAESGGRGITTTLCASFEFPLRLQSTDGVAVAVAPSGDATFLQNILRDKTDWPAAQKHREQLSAVMPEMDVVGCYVVCASSRWTSTRHPRGGDDRDGSQLSVGGAVKKAKGEAMAGADHIAAIANCVQQQLRSTSILPSTATGFVLLVVYDKEVTSAAGDTDTAAPNPPHSPAAARLPFDCLYVPATTASDASPTEEVTVGPSDMEWIALANETMMPAYHQSSTTTCSAAVKPGLLRRLCSAAYLTSEGPDSREPANTQTSRMASSQNCRAAEELVGSLRLIMRVLVEMTASTLSPTGTAPDDVELLRTVATCLRNVPVSHPSQPPGEPRAPSELPTEEMLSAILALEVQCALHMRSLSKAQQQLLSSSRSAMTAFHSKACSPKAANPPPPLPSAEGWSTHERDKRSGVNTAVPGHGWV” reads “not soluble”; that for “MRIWIDADACPKAAKELVCKFALKRKLEVWMVAGQPQVKPPFACVRLVVVESGMDAADDYLVEQAEPGDLAICSDVPLADRLIKKQVAALDPRGREFDARNMGDKLAMRNLMADLRDQGQMGGGQAPYGERDRQAFANALDRLLTRLQREADLRASQPHR”, “not soluble”; that for “MMTLIRITSADDSRLNRLIPLYEESFPESERRKIGQLKRMIENHAPMYFNAIECDGELSGMFVYWDMGDFYYLEHLAVFPEMRNKKIGQQVLDYVAEHLKGVRLLEVEPTEDEMTTRRVNYYRRNGYEVLDKTYVQPSYHALEDACPLWIMGSEDSPRLAEQVERIKEEVYRQQVG”, “not soluble”.

Turning to “MKNKDSLHVSRRRFLAQLGGLTVAGMLGPSLLTPRSARAADAVAPGAATKEGILTGSHWGAIRATVVDGRFVAAKPFEQDKYPSKMIAGLPDHVHNAARIRYPMVRVDWMRKGHQSDTSQRGDNRFVRVSWDEALDLFYQELERVQKTYGPSALLTASGWQSTGMFHNASGMLARAIALHGNSVSTGGDYSTGAAQVILPRVVGSMEVYEQQTSWPLVLQNSKTIVLWGSDMVKNQQANWWCPDHDVYQYYEQLKEKVASGAISVISIDPVVTSTHDYLGRDKVKHIAINPQTDVPLQLALAHTLYSEKLYDKNFLDNYCVGFDQFLPYLLGEKDGQPKDAAWAEKLCGIDADTIRALARQMAGDRTQIIAGWCVQRMQHGEQWSWMVVVLAAMLGQIGLPGGGFGFGWHYNGAGTPGRKGIILSGFSGSTTVPPVHDSTDYKGYSSTIPIARFMDAILEPGKIINWNGKSVKLPPLKMCVFAGTNPFHRHQQINRIIEGWRKLETVIAIDNQWTSTCRFADIVLPATTQFERNDLDQFGNHSNRGIIAMKQVVSPQFEARNDFDIFRDLCRRFNREAAFTEGLDEMGWLKRIWQEGSQQGKGRGIHLPIFEVFWNQQEYIEFDHPQMFVRHQAFREDPDLEPLGTPSGLIEIYSKTIADMQYDDCQGHPMWFEKIERSHGGPGSQRWPLHLQSVHPDFRLHSQLCESETLRQQYAVGGKEPVFINPQDASARGIRNGDIVRVFNARGQVLAGAVVSDRYAPGVARIHEGAWYDPDKGGDLNALCKYGNPNVLTLDIGTSQLAQATSAHTTLVEIEKYTGPMDNVTAFNGPVEMVAQCEYVPASQGNPHD”, the “soluble on expression in E. coli” value was “not soluble”. For “MALVEFLMETLDGLKGTDIVHFDVRGKSSITDNMIICTGTSSRQVSAMADNLITECKKAGFETFGEEGKNTADWIVVDLGQAIVHIMQRDAREMYQLEKLWALEHHHHHH” the value was “not soluble”.

Take “LHRYSEVLGLPVICTADGKNLGTIKDIIFCPKEKSVVAFLIECKGYNRRKKVVFASDVLSLGRDALIVNDADDVRDLKKVLHRPEFKDKGDILGLPIYTKNGEDLGTAKDVLFDLKHGKIDGIEVSDGLLQDIVKGRSVLPLIGKVEFGEENILVDNEAVEEMMETGGGIKNLIEGNKKVQRKG”: the “soluble on expression in E. coli” value is “not soluble”. The result for “MGSDKIHHHHHHMKAANLAPCLMAMLLCTACEQLPIARKAPPPPPPATTAAKPAEQPRPTPIAAHDISLAGTCRRTEDDGFREDAVMRVVSNDVKSLKWKLWVSKRGTCQFDLADFKQVQKTPHIVLEATDGTQCKLLIWQDPRRVTLAHANCQQRCTPGIYEQAWPVLFNPRNGDCAEIR” reads “not soluble”.

In the case of “MTKLHDISEHEKAIDFSIYLDSLPQYQHLASQDESHRHRALGIYSDFLSEENKSKRAALQNYKNYISLTERDPNQLAYPELQETRIDAVFSPDFMGSFAKSNGRHEETPMDGPGGYDMRSYLPYQTAPSGSLGNISTASSSCSSPPGTPAPSGKGRSPQAGGKMTSSGKGKKRLDKDSDEYRQRRERNNLAVRKSRDKAKMRNLETQHKVLELAAENDRLQKRVEQLSRELATLRNLLSATGQC”, the “soluble on expression in E. coli” value is listed as “not soluble”. For “MGSDKIHHHHHHMPPPVRVNWPRMRTTRRQTVTTWVGNVPVGSSHPIVVQSMTNTDTANAEATALQVAQLARAGSEIVRVTVNTREAAAALPEIVARLHDLGLDVPLVGDFHYNGHLLLREYPETARLLAKYRINPGNVGAGQHHDANFATMIEVAKTYGKPVRIGVNWGSLDQQVLARLMDENARRGSPKSGTDVMIDAMVTSALESAAYAEGLGLPHDRIIISVKVSSAPELWQVYRQLAPLCDYPLHLGLTEAGMGMKGMVASSVALAPLLSEGIGDTIRVSLTPEPGAPRKLEVEVAQQILQSLGLRQFLPQVTSCPGCGRTTSTFFQELARKIQDYIRDAMPEWKAKYPGVEDMQVAVMGCIVNGPGESKHANIGISLPGTGEDPRAPVYQDGKLLTTLKGPRIAEDFQELLEKYVEERYGHKSAHTTVQE” the value was “not soluble”; for “SIPWNLERITPPRYRADEYQPPDGGSLVEVYLLDTSIQSDHREIEGRVMVTDFENVPEEDGTRFHRQASKCDSHGTHLAGVVSGRDAGVAKGASMRSLRVLNCQGKGTVSGTLIGLEFIRKSQLVQPVGPLVVLLPLAGGYSRVLNAACQRLARAGVVLVTAAGNFRDDACLYSPASAPEVITVGATNAQDQPVTLGTLGTNFGRCVDLFAPGEDIIGASSDCSTCFVSQSGTSQAAAHVAGIAAMMLSAEPELTLAELRQRLIHFSAKDVINEAWFPEDQRVLTPNLVAALPPSTHGAGWQLFCRTVWSAHSGPTRMATAIARCAPDEELLSCSSFSRSGKRRGERMEAQGGKLVCRAHNAFGGEGVYAIARCCLLPQAACSVHTAPPAEASMGTRVHCHQQGHVLTGCSSHWEVEDLGTHKPPVLRPRGQPNQCVGHREASIHASCCHAPGLECKVKEHGIPAPQGQVTVACEEGWTLTGCSALPGTSHVLGAYAVDNTCVVRSRDVSTTGSTSEEAVTAVAICCRSRHLAQASQELQ”, “soluble”. The result for “LFRRWVIYIIRLYQRWISPLKTMPSCRFYPTCSQYAIDAVGRYGVIKGGFMALKRILKCHPFHPGGYDPVK” reads “soluble”.
